Earlier results, collected in publication PMC2903477.
pKd: −log10 of the molar value.

Biological target: TrkB (Homo sapiens) (UniProt Q16620)
Chain of UniProt Q16620 (Q16620 32-430): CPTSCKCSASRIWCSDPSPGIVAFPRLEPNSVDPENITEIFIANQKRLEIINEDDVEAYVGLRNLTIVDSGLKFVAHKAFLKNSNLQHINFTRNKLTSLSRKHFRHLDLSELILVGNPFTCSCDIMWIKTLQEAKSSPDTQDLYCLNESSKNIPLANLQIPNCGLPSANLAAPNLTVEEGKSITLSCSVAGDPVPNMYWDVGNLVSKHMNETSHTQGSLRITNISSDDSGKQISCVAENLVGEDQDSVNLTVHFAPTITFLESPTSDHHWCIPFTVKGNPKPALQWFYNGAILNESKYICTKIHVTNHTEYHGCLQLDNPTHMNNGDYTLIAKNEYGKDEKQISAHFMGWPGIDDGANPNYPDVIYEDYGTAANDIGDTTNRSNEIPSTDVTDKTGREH

BDNF (from UniProt P23560)
pKd: 10.00
